In PMC12406685, “Thiazole substitution of a labile amide bond—a new option toward antiplasmodial pantothenamide-mimics” (Antimicrobial Agents and Chemotherapy, 2025):

Experiments:
Details in all cases: other: compound as substrate of HsPanK3; mean ± SEM; 2c and 2e fitted with substrate inhibition equation 1
[1] = substrate: CC(C)(CO)[C@@H](O)C(=O)NCc1cnc(-c2ccccc2)s1; assay: HsPanK kinetic assay (pyruvate kinase/lactic dehydrogenase coupled, NADH at 340 nm); assay type: biochemical, human
Procedure: (§1) The gene encoding the catalytic core domain of human PanK3 (amino acid residues 12–368) was synthesized and cloned into the pET28a(+) expression vector using the NdeI and BamHI restriction sites to produce an N-terminal His6-tagged protein (Bio Basic Inc.). The plasmid was transformed into E. coli BL21(DE3) cells, which were cultured in Terrific Broth (TB) medium containing 50 µg/mL kanamycin at 37°C. When the culture reached an optical density at 600 nm (OD600) of 0.6, protein expression was induced by adding 1.0 mM isopropyl β-D-thiogalactoside (IPTG), followed by incubation at 18°C for 17–18 h. The cells were then harvested and resuspended in lysis buffer (20 mM Tris-HCl, pH 7.5, 500 mM NaCl, 5 mM imidazole, 5% [vol/vol] glycerol) supplemented with 1 mM PMSF (phenylmethylsulfonyl fluoride) and lysozyme (5 mg/g of the cell pellet). The suspension was then sonicated on ice, and the resulting lysate was centrifuged twice at 54,000 × g for 30 min at 4°C.
(§2) The clarified supernatant was incubated with Ni-NTA resin (Cytiva) pre-equilibrated with lysis buffer containing 5 mM imidazole at 4°C. After binding, the resin was washed with lysis buffer containing 30 mM imidazole, then eluted with lysis buffer containing 250 mM imidazole. The eluted HsPanK3 protein was dialyzed against storage buffer (20 mM Tris-HCl, pH 7.5, 200 mM NaCl, 5% [vol/vol] glycerol) and concentrated. The purified protein was stored at −80°C. Protein purity was assessed using SDS-PAGE and deemed >50% (Fig. S4).
(§3) The enzyme assay was adapted from a previously described method ([103]), which links the production of ADP to the consumption of NADH through the enzymatic activities of pyruvate kinase and lactic dehydrogenase. Reactions were conducted in 96-well microtiter plates, and the decrease in NADH concentration was measured at 340 nm at 30 s intervals after incubation at 30°C. Each reaction mixture (200 µL) contained the desired compound (substrate) at variable concentrations (0–2,000 µM), ATP (1.5 mM), NADH (0.3 mM), phospho(enol)pyruvate (2.0 mM), MgCl2 (10 mM), KCl (20 mM), a commercial pyruvate kinase/lactic dehydrogenase mixture (12 units, Sigma-Aldrich), and pantothenate kinase (0.48 µM) in 50 mM Tris–HCl buffer (pH 7.6). The reaction was initiated with the addition of ATP. The kinetic parameters were determined by fitting the rate data into the Michaelis–Menten equation using GraphPad Prism 8.0 with nonlinear regressions. Data were collected from three independent experiments, each performed in triplicate to verify the trends and optimize the selected concentrations. The kinetic parameters were calculated from the most complete triplicate set of data, and errors represent SEM.

[2] = substrate: CC(C)(CO)[C@@H](O)C(=O)NCc1csc(-c2ccccc2)n1; assay: as above; assay type: biochemical, human
Procedure: as §1, §2, §3

[3] = substrate: CC(C)(CO)[C@@H](O)C(=O)NCc1csc(Cc2ccccc2)n1; assay: as above; assay type: biochemical, human
Procedure: as §1, §2, §3

[4] = substrate: CC(C)(CO)[C@@H](O)C(=O)NCc1nc(CCc2ccccc2)cs1; assay: as above; assay type: biochemical, human
Procedure: as §1, §2, §3

[5] = substrate: CCCCCc1csc(CNC(=O)[C@H](O)C(C)(C)CO)n1; assay: as above; assay type: biochemical, human
Procedure: as §1, §2, §3

[6] = substrate: CCCCc1csc(CNC(=O)[C@H](O)C(C)(C)CO)n1; assay: as above; assay type: biochemical, human
Procedure: as §1, §2, §3

[7] = substrate: CC(C)(CO)[C@@H](O)C(=O)NCCC(=O)O; assay: purified protein, by the assay type

B1: HsPanK3 (Homo sapiens) (protein)
chain: PWFGMDIGGTLVKLSYFEPIDITAEEEQEEVESLKSIRKYLTSNVAYGSTGIRDVHLELKDLTLFGRRGNLHFIRFPTQDLPTFIQMGRDKNFSTLQTVLCATGGGAYKFEKDFRTIGNLHLHKLDELDCLVKGLLYIDSVSFNGQAECYYFANASEPERCQKMPFNLDDPYPLLVVNIGSGVSILAVHSKDNYKRVTGTSLGGGTFLGLCSLLTGCESFEEALEMASKGDSTQADKLVRDIYGGDYERFGLPGWAVASSFGNMIYKEKRESVSKEDLARATLVTITNNIGSVARMCAVNEKINRVVFVGNFLRVNTLSMKLLAYALDYWSKGQLKALFLEHEGYFGAVGALLGLPN
notes: catalytic core domain of human PanK3 (amino acid residues 12–368); made in house; host or cells: E. coli BL21(DE3)
**Q.** For B1, which Km [1] is on record?
**A.** Its Km is 75 ± 11 µM.

**Q.** And the kcat [1]?
**A.** Its kcat is 0.73 ± 0.02 s⁻¹.

**Q.** And the kcat/Km [1]?
**A.** Its kcat/Km is 10700 ± 800 M⁻¹ s⁻¹.

**Q.** And the Km [2]?
**A.** Its Km is 67 ± 10 µM.

**Q.** And the kcat [2]?
**A.** Its kcat is 0.73 ± 0.05 s⁻¹.

**Q.** And the kcat/Km [2]?
**A.** Its kcat/Km is 12000 ± 1000 M⁻¹ s⁻¹.

**Q.** And the Km [3]?
**A.** Its Km is 69 ± 6 µM.

**Q.** What about the kcat [3] of the same protein?
**A.** The kcat was 0.63 ± 0.02 s⁻¹.

**Q.** And the kcat/Km [3]?
**A.** The kcat/Km was 9300 ± 500 M⁻¹ s⁻¹.

**Q.** What about the Km [4] of the same protein?
**A.** The Km was 42 ± 4 µM.

**Q.** And the kcat [4]?
**A.** Its kcat is 0.399 ± 0.005 s⁻¹.

**Q.** What about the kcat/Km [4] of the same protein?
**A.** Its kcat/Km is 10000 ± 1000 M⁻¹ s⁻¹.

**Q.** And the Km [5]?
**A.** The Km was 65 ± 7 µM.

**Q.** And the kcat [5]?
**A.** The kcat was 0.61 ± 0.02 s⁻¹.

**Q.** What about the kcat/Km [5] of the same protein?
**A.** The kcat/Km was 10200 ± 900 M⁻¹ s⁻¹.

**Q.** And the Km [6]?
**A.** Its Km is 100 ± 7 µM.

**Q.** And the kcat [6]?
**A.** The kcat was 0.64 ± 0.01 s⁻¹.

**Q.** What about the kcat/Km [6] of the same protein?
**A.** The kcat/Km was 6600 ± 400 M⁻¹ s⁻¹.

**Q.** And the Km [7]?
**A.** The Km was 24 ± 4 µM.

**Q.** And the kcat [7]?
**A.** The kcat was 0.64 s⁻¹.

**Q.** And the kcat/Km [7]?
**A.** The kcat/Km was 30000 M⁻¹ s⁻¹.
